Target: Zif268 finger 1 variant phage pool, CCTG selection round 5 finger 1 positions -1, 2, 3, 6 randomized (four NNS codons), pool (UniProt P08046)
Assay: SELEX
Conditions: [none], phage display pool, no enrichment, 0.45 M NaCl washes, 10 uM ZnCl2, 5 mM MgCl2

Sequence: CTGAGCGTGGCCTGAGTGATCGATC / CACTCAGGCCACGCTCAG [CCTG duplex]
- activity (% phage retention): < 0.001
